From patent US20230151091A1 (NEW YORK UNIVERSITY, published 2023)

Experiments:
[1] = biological target: T1, mouse MuSK (mouse, UniProt Q61006 22-494, limits assumed); assay: Biacore T200, MuSK on chip (200RU), 22.2 nM Fab, dissociation pH 5.5
T1 construct: Coated on ELISA plates or on the Biacore chip; also called full length mouse MuSK; mouse MuSK (in house produced in HEK293 cells)
T1 sequence (looked up): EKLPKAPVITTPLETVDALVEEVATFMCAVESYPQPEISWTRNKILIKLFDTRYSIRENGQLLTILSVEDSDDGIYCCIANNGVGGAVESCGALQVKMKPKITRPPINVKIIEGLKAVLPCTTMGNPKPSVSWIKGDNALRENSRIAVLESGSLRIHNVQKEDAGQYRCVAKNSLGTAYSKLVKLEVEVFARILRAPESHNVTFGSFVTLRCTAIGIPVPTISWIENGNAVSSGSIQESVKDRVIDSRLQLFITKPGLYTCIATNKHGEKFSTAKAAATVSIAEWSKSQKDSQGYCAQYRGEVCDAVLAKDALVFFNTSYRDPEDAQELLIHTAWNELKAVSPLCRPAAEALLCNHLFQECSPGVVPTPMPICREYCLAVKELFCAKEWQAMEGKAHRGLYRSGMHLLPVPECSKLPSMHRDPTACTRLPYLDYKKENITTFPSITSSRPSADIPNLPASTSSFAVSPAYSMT
Protocol: (§1) In order to study pH dependent binding of the antibodies described herein to MuSK, a Biacore T200 was used. Briefly, a CMS chip was coated with human and mouse MuSK (200RU) and 22.2 nM of Fab was applied and kinetic parameters calculated. Association was done at pH7.4, dissociation was done at pH 7.4 and also at pH 5.5. The following Fabs were tested, X2, X2m4, X3, X9, X17, 3B2 and 3B2g2m1 (Table 10 and FIG. 23). […] Binding affinity at pH 5.5 is very low, resulting in a rapid dissociation at endosomal pH allowing 3B2g2m1 to recycle.

[2] = biological target: T2, human MuSK (human, UniProt O15146 24-495); assay: as above
T2 construct: Recombinant protein coated on ELISA plates (R&D Systems cat. 10189-MK) or on the Biacore chip; also called human muscle-specific tyrosine protein kinase; full length human MuSK
T2 sequence: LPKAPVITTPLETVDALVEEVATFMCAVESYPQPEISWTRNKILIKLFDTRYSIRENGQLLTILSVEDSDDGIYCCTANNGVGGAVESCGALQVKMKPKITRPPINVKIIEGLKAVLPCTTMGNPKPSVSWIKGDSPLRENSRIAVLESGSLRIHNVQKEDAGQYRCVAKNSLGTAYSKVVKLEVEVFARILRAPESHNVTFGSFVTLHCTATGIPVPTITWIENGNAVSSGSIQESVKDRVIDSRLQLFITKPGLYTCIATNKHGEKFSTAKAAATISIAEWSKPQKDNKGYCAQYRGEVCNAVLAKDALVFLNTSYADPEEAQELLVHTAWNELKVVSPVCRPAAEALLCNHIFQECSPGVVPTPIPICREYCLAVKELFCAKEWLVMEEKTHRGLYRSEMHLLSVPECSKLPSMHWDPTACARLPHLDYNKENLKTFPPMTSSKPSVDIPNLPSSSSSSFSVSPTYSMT
Protocol: as §1

[3] = biological target: T1, mouse MuSK; assay: Biacore T200, off rate at pH 5.5 against pH 7.4
Protocol: as §1

[4] = biological target: T2, human MuSK; assay: Biacore T200, off rate at pH 5.5 against pH 7.4
Protocol: as §1

[5] = biological target: T1, mouse MuSK; assay: Biacore T200, MuSK on chip (200RU), 22.2 nM Fab, dissociation pH 7.4
Protocol: as §1

[6] = biological target: T2, human MuSK; assay: as above
Protocol: as §1

[7] = biological target: T1, mouse MuSK; assay: Biacore, MuSK on chip (200RU), Fab dilution series
From the text: (§2) For affinity determination, a CMS chip was coated with either human or mouse MuSK (200RU) and a dilution series of the antibodies (mAbs and Fabs) was applied in order to be able to calculate the affinity.

[8] = biological target: T2, human MuSK; assay: Biacore, MuSK on chip (200RU), Fab dilution series
From the text: as §2

[9] = biological target: T2, human MuSK; assay: ELISA, plate coated with human MuSK at 0.2 µg/ml, dilution series of mAb, goat anti human Fc-HRP and TMB, OD 620 nm (8 min)
Protocol: An ELISA plate was coated with human MuSK (R&D Systems, cat. 10189-MK) or mouse MuSK (in house produced in HEK293 cells) at 0.2 μg/ml. After washing and blocking the plate, a dilution series of the anti-MuSK antibodies was applied and allowed to bind for 2 hours at room temperature. […] OD at 620 nm was measured with a 96 well ELISA plate reader.

[10] = biological target: T3, hFz: Fz domain and C-terminal flanking sequence of human MuSK (K314-T495) with C-terminal Avi- and His6-tags (human, UniProt O15146 314-495, biotinylated in vitro using the BirA enzyme); assay: bead-binding assay, Fab format: biotinylated antigen on streptavidin beads, flow cytometry, 1:1 fit; average ± s.d., n=3
T3 construct: also called human Fz; not shown: Avi- and His6-tags
T3 sequence: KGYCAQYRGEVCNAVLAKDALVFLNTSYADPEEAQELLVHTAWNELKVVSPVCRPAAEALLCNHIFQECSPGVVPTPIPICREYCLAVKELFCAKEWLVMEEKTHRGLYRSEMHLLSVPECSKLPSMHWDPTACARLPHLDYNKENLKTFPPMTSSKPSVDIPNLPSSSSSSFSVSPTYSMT

[11] = biological target: T4, mFz: Fz domain and C-terminal flanking sequence of mouse MuSK (D307 to T494) with C-terminal Avi- and … (mouse, UniProt Q61006 307-494, limits assumed, biotinylated in vitro using the BirA enzyme); assay: as above
T4 construct: also called mouse Fz; not shown: Avi- and His6-tags
T4 sequence (looked up): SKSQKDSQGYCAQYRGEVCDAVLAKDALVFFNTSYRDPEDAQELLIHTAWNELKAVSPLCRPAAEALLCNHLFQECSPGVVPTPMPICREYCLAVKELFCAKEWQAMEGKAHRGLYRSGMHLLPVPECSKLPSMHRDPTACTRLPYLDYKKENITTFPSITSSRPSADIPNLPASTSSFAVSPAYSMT

[12] = biological target: T5, mECD: full-length extracellular region of mouse MuSK (E22 to T494) with C-terminal Avi- and His6-tags (mouse, UniProt Q61006 22-494, biotinylated in vitro using the BirA enzyme); assay: as above
T5 construct: range 22-494; also called mouse ECD; not shown: Avi- and His6-tags
T5 sequence (looked up): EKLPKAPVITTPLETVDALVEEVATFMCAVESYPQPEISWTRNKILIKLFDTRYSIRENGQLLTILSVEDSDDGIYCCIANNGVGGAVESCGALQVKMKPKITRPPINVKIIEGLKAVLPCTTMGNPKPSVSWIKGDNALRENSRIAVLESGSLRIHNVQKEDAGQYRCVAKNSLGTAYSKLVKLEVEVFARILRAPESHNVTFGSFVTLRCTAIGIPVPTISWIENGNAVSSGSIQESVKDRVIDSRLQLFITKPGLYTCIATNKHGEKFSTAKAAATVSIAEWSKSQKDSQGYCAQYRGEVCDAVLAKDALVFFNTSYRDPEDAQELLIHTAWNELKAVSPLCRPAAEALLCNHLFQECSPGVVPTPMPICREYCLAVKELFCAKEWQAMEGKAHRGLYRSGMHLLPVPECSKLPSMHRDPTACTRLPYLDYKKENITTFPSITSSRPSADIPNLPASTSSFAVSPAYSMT

[13] = biological target: T6, hECD: full-length extracellular region of human MuSK (E22 to T495) with C-terminal Avi- and His6-tags (human, UniProt O15146 22-495, biotinylated in vitro using the BirA enzyme); assay: as above
T6 construct: also called human ECD; not shown: Avi- and His6-tags
T6 sequence: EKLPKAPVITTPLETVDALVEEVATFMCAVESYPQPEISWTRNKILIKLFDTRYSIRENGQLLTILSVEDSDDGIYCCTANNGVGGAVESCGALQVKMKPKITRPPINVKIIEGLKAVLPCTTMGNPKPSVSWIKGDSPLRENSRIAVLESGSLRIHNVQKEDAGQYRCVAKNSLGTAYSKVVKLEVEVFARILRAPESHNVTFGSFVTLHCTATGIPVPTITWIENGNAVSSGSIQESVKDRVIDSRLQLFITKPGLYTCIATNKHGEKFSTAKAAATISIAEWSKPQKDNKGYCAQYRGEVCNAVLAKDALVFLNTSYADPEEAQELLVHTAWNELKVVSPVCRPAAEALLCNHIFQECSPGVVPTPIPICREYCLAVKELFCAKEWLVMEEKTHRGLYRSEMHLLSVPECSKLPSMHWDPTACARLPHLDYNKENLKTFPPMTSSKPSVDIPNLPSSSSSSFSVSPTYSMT

[14] = biological target: T3, hFz: Fz domain and C-terminal flanking …; assay: bead-binding titration, Fab format: antigen immobilized on streptavidin beads, MFI by flow cytometry, curve is the 1:1 fit
[15] = biological target: T4, mFz: Fz domain and C-terminal flanking …; assay: as above
[16] = biological target: T5, mECD: full-length extracellular region …; assay: as above
[17] = biological target: T6, hECD: full-length extracellular region …; assay: as above

B1: 3B2 Fab (Fab, V domains shown)
VH: ELQLVESGGGLVQPGGSLRLSCAASGFTFDDYGMSWVRQAPGKGLEWVSAIPWNGGSTYYKESVKGRFTISRDNAKKTLYLQMNSLKSEDTAVYYCAKRSGRIAFGALDAWGQGTLVTVSS
VL: QAVVTQEPSLSVSPGGTVTLTCGLSSGSVTSSNYPDWYQQTPGQAPRGLIYSTDSRHSGVPSRFSGSISGNKAALTITGAQSEDEADYYCGLYMYSGSKNYVFGGGTKLTVL
notes: Fab format; also called Fab 3B2
For B1, the koff [1] was 0.109 s⁻¹, the koff [2] was 0.0224 s⁻¹ and the “Ratio pH 5.5/7.4 of off rate” value [3] was 31.5. The “Ratio pH 5.5/7.4 of off rate” value [4] was 5.8, the koff [5] was 0.00347 s⁻¹ and the koff [6] was 0.00388 s⁻¹. It also gave a Kd [7] of 1.52 nM and a Kd [8] of 3.18 nM.

B2: 14D10 (antibody, V domains shown)
VH: ELQLVESGGGLVQPGGSLRLSCAASGFTFDDYGMSWVRQAPGKGLEWVSAIPWNGGSTYYKESVKGRFTISRDNAKKTLYLQMNSLKSEDTAVYYCAKRSGRIAFGALDAWGQGTLVTVSS
VL: QAVVTQEPSLSVSPGGTVTLTCGLSSGSVTSSNYPDWYQQTPGQAPRTLIYTTNSRHSGVPSRFSGSISGNKAALTITGAQPEDEADYYCALYMGGGSNVYVFG
notes: human IgG1 with the LALA mutations (L234A, L235A); produced in HEK293 cells
B2 was tested, and the “EC50 (read off the curve)” value [9] was about 0.04 µg/mL.

B3: 17H10 (antibody, V domains shown)
VH: QVQVQESGPGLVKPSQTLSLTCTVSGGSITARYYSWSWIRQPPGKGLEWMGVIAYDGSTYYSPSLKSRTSISRDTSKNQFSLHLSSVTPDDTAVYYCARGSSRVAAAFDSWGQGTQVTVSS
VL: SYELTQSPSVSVALRQTAKITCGGNRIGGKSVQWYQQKPGQAPMLVIYADSRRPSGIPERFTGSNSGNTATLTITGAQAEDEADYYCHVWGSTASADFGGGTHLTVL
notes: as for B2
With B3 the “EC50 (read off the curve)” value [9] was about 0.02 µg/mL.

B4: X1 Fab (Fab, V domains shown)
VH: EVQLVESGGGLVQPGGSLRLSCAASGFTFSSSSIHWVRQAPGKGLEWVASISSSSGSTSYADSVKGRFTISADTSKNTAYLQMNSLRAEDTAVYYCARKYWSQYYWAHYYGGLDYWGQGTLVTVSS
VL: DIQMTQSPSSLSASVGDRVTITCRASQSVSSAVAWYQQKPGKAPKLLIYSASSLYSGVPSRFSGSRSGTDFTLTISSLQPEDFATYYCQQSSSSLITFGQGTKVEIK
notes: m52 is the same Fab tetramerized with streptavidin; also called Fab Clone X1 (monovalent Fab format)
B4 was tested, and the Kd [10] was 0.39 nM, the Kd [11] was 1.09 nM and the Kd [12] was 1.34 nM. For the same binder, the Kd [13] was 0.55 nM, the “EC50 (read off the curve)” value [14] was about 0.4 nM and the “EC50 (read off the curve)” value [15] was about 1 nM. The “EC50 (read off the curve)” value [16] was about 1 nM and the “EC50 (read off the curve)” value [17] was about 0.5 nM.
